{
  "source": "paper PMC12152739",
  "proteins": {"B1": {"name": "NDM-1 (Klebsiella pneumoniae) (protein)", "chain": "METGDQRFGDLVFRQLAPNVWQHTSYLDMPGFGAVASNGLIVRDGGRVLVVDTAWTDDQTAQILNWIKQEINLPVALAVVTHAHQDKMGGMDALHAAGIATYANALSNQLAPQEGMVAAQHSLTFAANGWVEPATAPNFGPLKVFYPGPGHTSDNITVGIDGTDIAFGGCLIKDSKAKSLGNLGDADTEHYAASARAFGAAFPKASMIVMSHSAPDSRAAITHTARMADKLR"}, "B2": {"name": "IMP-1 (Serratia marcescens) (protein)", "chain": "TAAESLPDLKIEKLDEGVYVHTSFEEVNGWGVVPKHGLVVLVNAEAYLIDTPFTAKDTEKLVTWFVERGYKIKGSISSHFHSDSTGGIEWLNSRSIPTYASELTNELLKKDGKVQATNSFSGVNYWLVKNKIEVFYPGPGHTPDNVVVWLPERKILFGGCFIKPYGLGNLGDANIEAWPKSAKLLKSKYGKAKLVVPSHSEVGDASLLKLTLEQAVKGLNESKKPSKPSN"}},
  "assay_type_in_all_cases": "biochemical",
  "key": {"[1]": {"substrate": "CC(C)(O/N=C(\\C(=O)N[C@@H]1C(=O)N2C(C(=O)[O-])=C(C[N+]3(CCNC(=O)c4ccc(O)c(O)c4Cl)CCCC3)CS[C@H]12)c1csc(N)n1)C(=O)O", "experiment": "Steady-state hydrolysis kinetics and UV difference spectra with purified NDM-1", "details": "other: substrate hydrolysis by NDM-1, 30 °C, pH 7.5"}, "[2]": {"substrate": "CC(C)(O/N=C(\\C(=O)N[C@@H]1C(=O)N2C(C(=O)[O-])=C(C[n+]3ccccc3)CS[C@H]12)c1csc(N)n1)C(=O)O", "experiment": "Steady-state hydrolysis kinetics and UV difference spectra with purified NDM-1", "details": "other: substrate hydrolysis by NDM-1, 30 °C, pH 7.5"}, "[3]": {"substrate": "CC(C)(O/N=C(\\C(=O)N[C@@H]1C(=O)N2C(C(=O)[O-])=C(C[N+]3(CCNC(=O)c4ccc(O)c(O)c4Cl)CCCC3)CS[C@H]12)c1csc(N)n1)C(=O)O", "experiment": "Steady-state hydrolysis kinetics and UV difference spectra with purified IMP-1", "details": "other: FDC hydrolysis by IMP-1, 30 °C, pH 7.5"}},
  "data": [
    {"protein": "B1", "values": [
      {"measurement": "kcat", "setting": "[1]", "result": "84 ± 11", "unit": "s⁻¹"},
      {"measurement": "kcat", "setting": "[2]", "result": "187 ± 13", "unit": "s⁻¹"},
      {"measurement": "kcat/Km", "setting": "[2]", "result": "4.16e+06", "unit": "M⁻¹ s⁻¹"}
    ]},
    {"protein": "B2", "values": [
      {"measurement": "kcat", "setting": "[3]", "result": "1.25 ± 0.23", "unit": "s⁻¹"}
    ]}
  ]
}
